Laboratory results reported in patent US20150087577A1 (POLYPHOR, published 2015).
Bridges are numbered along the chain shown (N, C = ends). Primed or numbered codes have the meaning given here. [ ]: non-standard residue; d: D form. A8″‑42 = template L-Pro residue whose 4-amino group is acylated with CH3-(OCH2CH2)2-OCH2-CO (2-[2-(2-methoxyethoxy)ethoxy]acetyl), per the notes; 2Nal = N[C@@H](Cc1ccc2ccccc2c1)C(=O)O; Cit = NC(=O)NCCC[C@H](N)C(=O)O; Dab = NCC[C@H](N)C(=O)O

B1: Example 115 (peptide)
peptide: cyclo(YR[Cit]CRG[dP]RR[2Nal]CYQK[dP]P)
modifications: disulfide 4-11
SMILES: N=C(N)NCCC[C@@H]1NC(=O)[C@@H]2CSSC[C@H](NC(=O)[C@H](Cc3ccc4ccccc4c3)NC(=O)[C@H](CCCNC(=N)N)NC(=O)[C@H](CCCNC(=N)N)NC(=O)[C@H]3CCCN3C(=O)CNC1=O)C(=O)N[C@@H](Cc1ccc(O)cc1)C(=O)N[C@@H](CCC(N)=O)C(=O)N[C@@H](CCCCN)C(=O)N1CCC[C@@H]1C(=O)N1CCC[C@H]1C(=O)N[C@@H](Cc1ccc(O)cc1)C(=O)N[C@@H](CCCNC(=N)N)C(=O)N[C@@H](CCCNC(N)=O)C(=O)N2
B2: Example 109 (peptide)
peptide: cyclo(YR[Cit]CRG[dP][Dab]RWCYQK[dP]P)
modifications: disulfide 4-11
SMILES: N=C(N)NCCC[C@@H]1NC(=O)[C@@H]2CSSC[C@H](NC(=O)[C@H](Cc3c[nH]c4ccccc34)NC(=O)[C@H](CCCNC(=N)N)NC(=O)[C@H](CCN)NC(=O)[C@H]3CCCN3C(=O)CNC1=O)C(=O)N[C@@H](Cc1ccc(O)cc1)C(=O)N[C@@H](CCC(N)=O)C(=O)N[C@@H](CCCCN)C(=O)N1CCC[C@@H]1C(=O)N1CCC[C@H]1C(=O)N[C@@H](Cc1ccc(O)cc1)C(=O)N[C@@H](CCCNC(=N)N)C(=O)N[C@@H](CCCNC(N)=O)C(=O)N2
B3: Example 110 (peptide)
peptide: cyclo(YRTCRG[dP][Dab]RWCYQK[dP]P)
modifications: disulfide 4-11
SMILES: C[C@@H](O)[C@@H]1NC(=O)[C@H](CCCNC(=N)N)NC(=O)[C@H](Cc2ccc(O)cc2)NC(=O)[C@@H]2CCCN2C(=O)[C@H]2CCCN2C(=O)[C@H](CCCCN)NC(=O)[C@H](CCC(N)=O)NC(=O)[C@H](Cc2ccc(O)cc2)NC(=O)[C@@H]2CSSC[C@H](NC1=O)C(=O)N[C@@H](CCCNC(=N)N)C(=O)NCC(=O)N1CCC[C@@H]1C(=O)N[C@@H](CCN)C(=O)N[C@@H](CCCNC(=N)N)C(=O)N[C@@H](Cc1c[nH]c3ccccc13)C(=O)N2
B4: Example 107 (peptide)
peptide: cyclo(FR[Cit]CRG[dP]RRWCY[Cit]K[dP]P)
modifications: disulfide 4-11
SMILES: N=C(N)NCCC[C@@H]1NC(=O)[C@@H]2CSSC[C@H](NC(=O)[C@H](Cc3c[nH]c4ccccc34)NC(=O)[C@H](CCCNC(=N)N)NC(=O)[C@H](CCCNC(=N)N)NC(=O)[C@H]3CCCN3C(=O)CNC1=O)C(=O)N[C@@H](Cc1ccc(O)cc1)C(=O)N[C@@H](CCCNC(N)=O)C(=O)N[C@@H](CCCCN)C(=O)N1CCC[C@@H]1C(=O)N1CCC[C@H]1C(=O)N[C@@H](Cc1ccccc1)C(=O)N[C@@H](CCCNC(=N)N)C(=O)N[C@@H](CCCNC(N)=O)C(=O)N2
B5: Example 112 (peptide)
peptide: cyclo(YR[Cit]CRG[dP]RRYCY[Cit]K[dP]P)
modifications: disulfide 4-11
SMILES: N=C(N)NCCC[C@@H]1NC(=O)[C@@H]2CSSC[C@H](NC(=O)[C@H](Cc3ccc(O)cc3)NC(=O)[C@H](CCCNC(=N)N)NC(=O)[C@H](CCCNC(=N)N)NC(=O)[C@H]3CCCN3C(=O)CNC1=O)C(=O)N[C@@H](Cc1ccc(O)cc1)C(=O)N[C@@H](CCCNC(N)=O)C(=O)N[C@@H](CCCCN)C(=O)N1CCC[C@@H]1C(=O)N1CCC[C@H]1C(=O)N[C@@H](Cc1ccc(O)cc1)C(=O)N[C@@H](CCCNC(=N)N)C(=O)N[C@@H](CCCNC(N)=O)C(=O)N2
B6: Example 114 (peptide)
peptide: cyclo(GR[Cit]CRG[dP]RR[2Nal]CY[Cit]K[dP]P)
modifications: disulfide 4-11
SMILES: N=C(N)NCCC[C@@H]1NC(=O)CNC(=O)[C@@H]2CCCN2C(=O)[C@H]2CCCN2C(=O)[C@H](CCCCN)NC(=O)[C@H](CCCNC(N)=O)NC(=O)[C@H](Cc2ccc(O)cc2)NC(=O)[C@@H]2CSSC[C@H](NC(=O)[C@H](CCCNC(N)=O)NC1=O)C(=O)N[C@@H](CCCNC(=N)N)C(=O)NCC(=O)N1CCC[C@@H]1C(=O)N[C@@H](CCCNC(=N)N)C(=O)N[C@@H](CCCNC(=N)N)C(=O)N[C@@H](Cc1ccc3ccccc3c1)C(=O)N2
B7: Example 111 (peptide)
peptide: cyclo(YR[Cit]C[Dab]G[dP]RRWCYQK[dP]P)
modifications: disulfide 4-11
SMILES: N=C(N)NCCC[C@@H]1NC(=O)[C@H](CCCNC(=N)N)NC(=O)[C@H]2CCCN2C(=O)CNC(=O)[C@H](CCN)NC(=O)[C@@H]2CSSC[C@H](NC(=O)[C@H](Cc3c[nH]c4ccccc34)NC1=O)C(=O)N[C@@H](Cc1ccc(O)cc1)C(=O)N[C@@H](CCC(N)=O)C(=O)N[C@@H](CCCCN)C(=O)N1CCC[C@@H]1C(=O)N1CCC[C@H]1C(=O)N[C@@H](Cc1ccc(O)cc1)C(=O)N[C@@H](CCCNC(=N)N)C(=O)N[C@@H](CCCNC(N)=O)C(=O)N2
B8: Example 22 (peptide)
peptide: cyclo(YR[Cit]FRVPRR[2Nal]VY[Cit]K[dP]P)
SMILES: CC(C)[C@@H]1NC(=O)[C@H](Cc2ccc3ccccc3c2)NC(=O)[C@H](CCCNC(=N)N)NC(=O)[C@H](CCCNC(=N)N)NC(=O)[C@@H]2CCCN2C(=O)[C@H](C(C)C)NC(=O)[C@H](CCCNC(=N)N)NC(=O)[C@H](Cc2ccccc2)NC(=O)[C@H](CCCNC(N)=O)NC(=O)[C@H](CCCNC(=N)N)NC(=O)[C@H](Cc2ccc(O)cc2)NC(=O)[C@@H]2CCCN2C(=O)[C@H]2CCCN2C(=O)[C@H](CCCCN)NC(=O)[C@H](CCCNC(N)=O)NC(=O)[C@H](Cc2ccc(O)cc2)NC1=O
B9: Example 113 (peptide)
peptide: cyclo(YR[Cit]CRG[dP]RRYC[Cit]YK[dP]P)
modifications: disulfide 4-11
SMILES: N=C(N)NCCC[C@@H]1NC(=O)[C@@H]2CSSC[C@H](NC(=O)[C@H](Cc3ccc(O)cc3)NC(=O)[C@H](CCCNC(=N)N)NC(=O)[C@H](CCCNC(=N)N)NC(=O)[C@H]3CCCN3C(=O)CNC1=O)C(=O)N[C@@H](CCCNC(N)=O)C(=O)N[C@@H](Cc1ccc(O)cc1)C(=O)N[C@@H](CCCCN)C(=O)N1CCC[C@@H]1C(=O)N1CCC[C@H]1C(=O)N[C@@H](Cc1ccc(O)cc1)C(=O)N[C@@H](CCCNC(=N)N)C(=O)N[C@@H](CCCNC(N)=O)C(=O)N2
B10: Example 108 (peptide)
peptide: cyclo(YR[Cit]CRG[dP]RRWCYQK[dP]P)
modifications: disulfide 4-11
SMILES: N=C(N)NCCC[C@@H]1NC(=O)[C@@H]2CSSC[C@H](NC(=O)[C@H](Cc3c[nH]c4ccccc34)NC(=O)[C@H](CCCNC(=N)N)NC(=O)[C@H](CCCNC(=N)N)NC(=O)[C@H]3CCCN3C(=O)CNC1=O)C(=O)N[C@@H](Cc1ccc(O)cc1)C(=O)N[C@@H](CCC(N)=O)C(=O)N[C@@H](CCCCN)C(=O)N1CCC[C@@H]1C(=O)N1CCC[C@H]1C(=O)N[C@@H](Cc1ccc(O)cc1)C(=O)N[C@@H](CCCNC(=N)N)C(=O)N[C@@H](CCCNC(N)=O)C(=O)N2
B11: Example 116 (peptide)
peptide: cyclo(YR[Cit]CRG[dP]RRWCY[Cit]K[dP][A8″‑42])
modifications: disulfide 4-11

target: human CXCR4 (human, UniProt P61073 1-352); assay: cell-based or functional assay
Sequence (P61073 whole entry): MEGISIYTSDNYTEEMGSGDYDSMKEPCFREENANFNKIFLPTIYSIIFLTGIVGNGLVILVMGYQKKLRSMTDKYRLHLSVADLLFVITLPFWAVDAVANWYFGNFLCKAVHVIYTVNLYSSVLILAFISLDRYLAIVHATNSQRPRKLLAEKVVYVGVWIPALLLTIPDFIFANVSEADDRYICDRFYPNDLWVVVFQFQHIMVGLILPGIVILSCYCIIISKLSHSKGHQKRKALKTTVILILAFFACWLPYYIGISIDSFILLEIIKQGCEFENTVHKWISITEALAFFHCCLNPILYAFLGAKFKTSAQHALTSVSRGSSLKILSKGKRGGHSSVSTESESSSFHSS

| IC50 (nM) Ca2+ assay (method 2) [nM] | IC50 (nM) Ca2+ assay (method 1) [nM] | Binder |
| --- | --- | --- |
| 2.7 |  | B1 |
| 3 |  | B2 |
| 1.7 |  | B3 |
| 3.8 |  | B4 |
| 7.8 |  | B5 |
| 1.3 |  | B6 |
| 1.6 |  | B7 |
|  | 300 | B8 |
| 0.62 |  | B9 |
| 4.6 |  | B10 |
| 14.5 |  | B11 |
